From publication PMC11952319

What was measured:
Experiment in all cases: BLI
[1] = molecular target: M15 single reverted mutant G51A (light chain residue 51 reverted to the germline residue) (human)
[2] = molecular target: M15 single reverted mutant S32I (light chain residue 32 reverted to the germline residue) (human)
[3] = molecular target: M15 single reverted mutant T57I (light chain residue 57 reverted to the germline residue) (human)
[4] = molecular target: M15 triple mutant with all three light chain mutations (S32I, G51A, T57I) reverted to germline (human)

SARS-CoV-2 WA1/2020 S2 protein (stabilized prefusion SARS-CoV-2 spike S2 trimer) (from UniProt P0DTC2) (domain or fragment)
fold decrease in binding affinity compared to M15 [1]: 1.88 fold
fold decrease in binding affinity compared to M15 [2]: 1.45 fold
fold decrease in binding affinity compared to M15 [3]: 1.02 fold
fold decrease in binding affinity compared to M15 [4]: 12 fold
